The values that follow come from US7030099B2, “Tumor specific promoters of the midkine gene that allow for selective expression in P53-inactivated cells” (Research Corporation Technologies, Inc., priority 2000, dated 2006).

For data set [1], the system named is normal human fibroblasts HEF, MRC-5. Put plainly: Luciferase assay of c-erbB-2 promoter activity, normal fibroblasts. To be noted: FIG. 7B. It counts as cell-based. The method, then: (§1) With the transcription initiation site of the c-erbB-2 gene as +1, DNA that corresponded to a genomic region (p533) from −435 to +38 and that had the sequence set forth in SEQ ID NO: 7 was amplified by the PCR method, and then the DNA fragment was integrated into the pGEM-TEasy (manufactured by Promega), and the sequences of the PCR product was determined. Thus, after inserting this PCR product into the SmaI site of pGL2-Basic (manufactured by Promega), it was cleaved with BlnI/SmaI, PstI/SmaI, and BssHII/SmaI using the restriction enzyme sites present on the c-erbB-2 genomic gene to construct plasmids in which the genomic regions of c-erbB-2, p344 (−306/+38) (DNA having the base sequence set forth in SEQ ID NO: 8), p251 (−213/+38) (DNA having the base sequence set forth in SEQ ID NO: 9) and p124 (−86/+38) (DNA having the base sequence set forth in SEQ ID NO: 10) are localized upstream of the Firefly luciferase gene, respectively. Using the plasmid pGL2-Control (manufactured by Promega) having the promoter of SV40 virus and the plasmid pGL2-Basic (manufactured by Promega) containing no promoters, gene introduction was performed in human breast cancer cells OCUBM, MCF7, BT549, normal human fibroblasts HEF, MRC-5, human malignant melanoma A875, and human lung cancer cells QG-56, all of which were cultured in DMEM (Sigma) supplemented with 10% bovine fetal serum. Firstly, after 10 μg each of these plasmids and lipofectin (Life Technologies) were mixed, it was allowed to stand at room temperature for 30 minutes to form a complex of DNA and lipid. Then the complex, after removing the bovine fetal serum therefrom, was contacted with the cells. Eight hours later culture medium supplemented with bovine fetal serum was added. After 48 hours-culture, the cells were disrupted using the Dual-Luciferase Reporter Assay System (manufactured by Promega), and the Firefly luciferase activity therein was determined using the reagents in the same kit. In order to normalize the efficiency of gene introduction, 1 μg of pRL-TK plasmid (manufactured by Promega) was included in each gene-introduced group, and the Renilla luciferase activity by the TK promoter was determined, based on which the Firefly luciferase activity was corrected.

In data set [2] the test system is non-breast cancer cells A875. Description: In vitro sensitivity to GCV of promoter-TK gene-introduced cells. It counts as cell-based, human. To be noted: GCV seven days, FIG. 8B. The method, then: (§2) In order to examine the cytotoxic effects using the p251 promoter, a suicide gene HSV-TK was ligated downstream of this promoter region (pro251-TK), this plasmid was expressed in cells, and a prodrug GCV was added to the culture of the gene-introduced cells. The measurement of cytotoxic effects by this system was carried out according to the method described in Moolten, Fla. Cancer Gene Ther., 1:279–287, 1994. Firstly, the cytomegalovirus (CMV) promoter of pcDNA3 (manufactured by Invitrogen) was removed using NruI and HindIII sites, into which the p251 promoter was inserted and then using the EcoRV site, the HSV-TK gene excised from pMK (Brinster, R L et al., Cell, 27:223–231, 1981) with BglI and EcoRI was inserted (pro251-TK). As a control, a pcDN3-derived plasmid (pro251) that contains no HSV-TK gene but has integrated the p251 promoter, and a pcDNA3-derived plasmid (CMV-TK) that has the HSV-TK gene and permits the expression of the HSV-TK gene were also used. Each of the plasmids ([…], pro251-TK, CMV-TK) was introduced using lipofectin into the breast cancer cells MCF7 or non-breast cancer cells A875. In order to utilize the expression of the Neo gene contained in pcDNA3 as a drug resistant marker, the transfected cells were cultured with 400 μg/ml of G418 (manufactured by Life Technologies) for ten days to establish the cells that express a respective gene. […]

For data set [3], the system named is breast cancer cells MCF7. Described as above. It counts as cell-based, human. Conditions: GCV seven days, FIG. 8A. The method, then:
as §2

Data set [4] has as its system human malignant melanoma A875, human lung cancer cells QG-56. Description: Luciferase assay of c-erbB-2 promoter activity, non-breast tumor cells. It counts as cell-based. Conditions: human malignant melanoma cells and human lung cancer cells; FIG. 7C. The method, then: as §1
In data set [5] the test system is human breast cancer cells OCUBM, MCF7, BT549. Description: Luciferase assay of c-erbB-2 promoter activity, breast cancer cells. Conditions: FIG. 7A. It counts as cell-based. The method, then: as §1, with “Then the complex, after removing the bovine fetal serum therefrom, was contacted with the cells. Eight hours later culture medium supplemented with bovine fetal serum was added.” left out

B1: p251: c-erbB-2 genomic region −213/+38, SEQ ID NO: 9 (nucleic acid, listed as Homo sapiens)
DNA: GGCAACCCAGGCGTCCCGGCGCTAGGAGGGACGACCCAGGCCTGCGCGAAGAGAGGGAGAAAGTGAAGCTGGGAGTTGCCGACTCCCAGACTTCGTTGGAATGCAGTTGGAGGGGGCGAGCTGGGAGCGCGCTTGCTCCCAATCACAGGAGAAGGAGGAGGTGGAGGAGGAGGGCTGCTTGAGGAAGTATAAGAATGAAGTTGTGAAGCTGAGATTCCCCTCCATTGGGACCGGAGAAACCAGGGGAGCCC
On to B1, for which, in data set [1], the “promoter activity compared with SV40 promoter” value is recorded as “lower than the SV40 promoter”; the “transcription activity compared with other c-erbB-2 promoter fragments” value was “low compared with the p344 promoter and with the p533 promoter”. For the same molecule, the “sensitivity to GCV of cells expressing HSV-TK under the promoter” value in data set [2] was “very weak compared with of the parent strain”. The “sensitivity to GCV of cells expressing HSV-TK under the promoter” value in data set [3] is “greater sensitivity to GCV than the parent strain”. In addition, in data set [4], the “transcription activity compared with SV40 promoter” value was “lower than the SV40 promoter” and the “transcription activity compared with p533 promoter” value is recorded as “about the same as that of p533 promoter”. In data set [5], the “promoter activity compared with promoter of SV40 virus” value is on record as “more potent than the promoter of SV40 virus” and the “transcription activity compared with other c-erbB-2 promoter fragments” value is “higher transcription activity than the p533 promoter”.
